The chains are these.
B1: TPR 5TU (parent)
chain: GGAUCUUCUCGAUCUAACAAAAAAGACAAAUCUGCCACAAAGCUUGAGAGCAUCUUCGGAUGCAGAGGCGGCAGCCUUCGGUGGCGCGAUAGCGCCAACGUUCUCAACUAUGACACGCAAAACGCGUGCUCCGUUGAAUGGAGUUUAUCAUG

Variants at the floor of the assay were thinned out.

The variants in the data set derive from B1. The experiment in a line: polymerase ribozyme fitness, log enrichment relative to wild type (log ratio); higher = more active; in vitro selection for triplet polymerase activity. The essentials:
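Frozen incubation at −7 °C formed the core of a single, triplicate in vitro selection round applied to PCR-built, transcribed mutant libraries of each subunit of a heterodimeric triplet polymerase ribozyme. Extended constructs were gel-excised, captured with streptavidin beads and amplified by RT-PCR, and input and output libraries were Illumina-sequenced with a filter of ≥10 input reads and ≥1 read per output. Fitness is the logarithm of genotype enrichment relative to wild-type enrichment, with inverse-variance-weighted replicate averaging, and the logarithm is base 2.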
Turning to C129U, the “polymerase ribozyme fitness (log ratio)” value was -0.0537.
In the case of U15A U55A G88C U145G it was -3.86; in that of A39C U55G G81C A121U, -2.31; in that of A3G A16U U53A C75U G92U, -3.54.
The value for A73C G86C U104C was not above -4.2; that for A17G C96G was -1.29.
In the case of A17U U31G C32A A150G it was not above -4.2.
With C43U U55A C87U, the “polymerase ribozyme fitness (log ratio)” value is not above -4.2.
The value for C96G G143C was -2.86; that for G42U A47C C87A U104G A107G was not above -4.2.
In the case of A28U U77C it was not above -4.2; in that of C76U U135C, -2.53.
The value for U6A G80C G94A was not above -4.2.
Consider U13G U31C C96A, for which the “polymerase ribozyme fitness (log ratio)” value is -0.864.
G46C U61G G81C C114U C116G A147G: the “polymerase ribozyme fitness (log ratio)” value is not above -4.2.
The value for C54U C96A C105U was 0.0167; that for U6A A29G G74A C103G A107G A122U was not above -4.2; that for U9A U55A C85U G94A C114U G140C was not above -4.2.
The value for C93A A98G was -1.81; that for A89G C99G C116A was -1.92.
In the case of A23C G58A C87U A91U it was not above -4.2.
For the variant A12G G80C G81C C118U U135A, the “polymerase ribozyme fitness (log ratio)” value was -1.66.
In the case of A41C G50C G84A it was not above -4.2.
The value for A73C G94A C95U U102C G126C G141U was not above -4.2; that for C76U A122G was -0.0921.
Turning to G58C A66C C87G U139A, the “polymerase ribozyme fitness (log ratio)” value is not above -4.2.
In the case of A23U A29U C79G G81U C93G C149U it was not above -4.2; in that of A106G G117A, 0.816; in that of C57U, -0.0371.
In the case of G124A U148G it was -3.69.
In the case of U15A G74U C79G it was not above -4.2.
On to U31C C85U, for which the “polymerase ribozyme fitness (log ratio)” value turned out to be 0.604.
In the case of G88C C105G G128C A142C it was not above -4.2.
For C10U C36U C63A C118U, the “polymerase ribozyme fitness (log ratio)” value was not above -4.2.
In the case of U4C C27U G62C C85A A138U it was not above -4.2.
In the case of G46U C87A G88A G143U U148A it was not above -4.2; in that of C54A A91G, -3.97; in that of U56A U82C C87G A150U, -3.31.
In the case of C103A A120G C131U A138U it was -3.71; in that of U55G A110G, -2.87; in that of U55A C87U U90C A122U, not above -4.2.
On to U77A U78C G94U C95G C105U, for which the “polymerase ribozyme fitness (log ratio)” value was not above -4.2.
In the case of C95G C96G it was -2.17; in that of U44G C93U A137G U148C, not above -4.2; in that of U9A A20U A28U C79A C87U U139A, not above -4.2.
The value for C35G G141C was -3.66; that for C18U A37U U55A G86A was -3.67.
In the case of C35U C54G C57G C69U U82A A91U G92A A113G it was not above -4.2.
Consider A37C A47C, for which the “polymerase ribozyme fitness (log ratio)” value was -1.24.
On to C54A U127C, for which the “polymerase ribozyme fitness (log ratio)” value is -2.28.
The value for A17G A29U G67U G100A C123G C132G was not above -4.2; that for C96A G128U was -2.45; that for U9A A12C A23G G42C C51A A120C A121U was not above -4.2.
In the case of C38U C95A C108U, the “polymerase ribozyme fitness (log ratio)” value was -3.39.
Consider A41U C63U U102C, for which the “polymerase ribozyme fitness (log ratio)” value is -3.6.
C27U U55A G58C C87U U111C A142U: the “polymerase ribozyme fitness (log ratio)” value is -4.19.
For A16C A20C G84U A97U U130C, the “polymerase ribozyme fitness (log ratio)” value is -4.17.
The value for A52U G81A C87A A97U U104G G126C U134G G136C was not above -4.2.
The value for C57G G71A C96A U146A was -4.05.
In the case of A40U G86A G141A it was -1.06; in that of U33G C43U A60U G88A U109G U135G G143A, -4.09; in that of G11A A39G C54G C87U C96G, not above -4.2.
C27U A39G A40C C69A U77C G94U C95A C116U G140U: the “polymerase ribozyme fitness (log ratio)” value is not above -4.2.
The value for A20G A21C U31C C103A U144G was -1.73; that for A28U A52G C85U G88A C95G U109G was not above -4.2; that for U6C C63U A138G was -4.08.
The value for A41C C114U U127C was -3.96; that for A37G G83U G84A A142G was not above -4.2.
In the case of C51G A73U it was -3.44; in that of A3U C8U, -0.611; in that of U53C U56A A89U C93U G141U, -1.74.
Turning to A20U C27A U31G A40G G42U C96G A97G, the “polymerase ribozyme fitness (log ratio)” value was not above -4.2.
The value for C51U C54U C76A G86A was -2.96; that for C51U C75G G88A U130A was not above -4.2.
With A20G G59C G70A, the “polymerase ribozyme fitness (log ratio)” value is -4.05.
Take A19U A49G C57A A60U C116U: the “polymerase ribozyme fitness (log ratio)” value is -2.27.
The value for C14A A21U G59U G133C was -3.06.
The value for U82G A137C was -2.98.
Consider U101G G124A, for which the “polymerase ribozyme fitness (log ratio)” value amounted to 0.852.
In the case of U31C C38G A47G C51A U56A G83C U146C U148C it was not above -4.2.
Turning to A40U C79G A91G, the “polymerase ribozyme fitness (log ratio)” value was not above -4.2.
In the case of U53A C57U G143C it was -3.52.
Take A16G C93G: the “polymerase ribozyme fitness (log ratio)” value was -4.02.
The value for G94A C108A A137C was not above -4.2; that for C27G C93U U130G U151A was not above -4.2; that for U6A A37G G80A C87A U102G G152A was not above -4.2.
Consider A21C A26U C38U C87G C105U, for which the “polymerase ribozyme fitness (log ratio)” value was not above -4.2.
The value for A12G C93A was -2.26.
The value for A73G U148A was -3.81; that for C27U C35A G133U C149G was not above -4.2.
The value for U82A A106G C123G U148G was -4.03; that for U53G A119C A122C G141U was -0.69.
As to C36U C75G C96G A121U, the “polymerase ribozyme fitness (log ratio)” value is not above -4.2.
In the case of U55A C69A A97U U102C C149A it was not above -4.2; in that of G11U C87G, -4.09.
In the case of A21C G34A C43U A60C A64G A91U it was not above -4.2; in that of A19U C38A C54U C85A C108A, not above -4.2.
In the case of C5G A12G A22U C38A U44G C75A C79U C93A G133U it was not above -4.2.
Consider A28U A40C C75G C87A C95U C105G A121U, for which the “polymerase ribozyme fitness (log ratio)” value is not above -4.2.
In the case of A19C A52G G88A A106G U139A it was not above -4.2; in that of C76A G94A, -0.598; in that of A28U G50C G83C A110C, not above -4.2.
The value for G84U G117U C123U G141A U146A was not above -4.2; that for G25U C76U G94C A120G was -2.88; that for G94A C123G U146G was -1.05.
In the case of U4G A29C C75A C96U A115U U148A it was -3.99; in that of U9A A23G G68C C79U G94C C105G G143A, not above -4.2.
Consider C36A A98U A113U C118U U148A, for which the “polymerase ribozyme fitness (log ratio)” value was not above -4.2.
The value for G58A G80C was not above -4.2.
In the case of G11A C14G A19U C27A U31C C118G it was not above -4.2; in that of A24U G67C C76G G83U, -2.24.
For the variant A3C C76U C96A, the “polymerase ribozyme fitness (log ratio)” value is -0.525.
Take U9C A16G U44G A49G A64G C105G G124A: the “polymerase ribozyme fitness (log ratio)” value was not above -4.2.
In the case of A73G A97G it was 0.222.
The value for A41U U55A C79U G83A was not above -4.2; that for C27U U78A C79G A91C C118G was not above -4.2.
As to C35G G68A A91U U144C, the “polymerase ribozyme fitness (log ratio)” value is not above -4.2.
The value for C14A G84A was -1.24; that for U7G U82A G117U was -3.65; that for C5G A12U U31A A41U C54U U56A G88A U127C A137C G141A was not above -4.2.
The value for G58U C85G was -1.61; that for G59A A147U was 1.25; that for C14A G58A G68A U78A G94A was not above -4.2.
The value for C51G C87A was not above -4.2; that for U4G C5G A29G A52U G67U C79G G83A was not above -4.2; that for C54G U56A C96G U102C G136A U144G was -3.08.
For the variant C38U G92U C95G A106U, the “polymerase ribozyme fitness (log ratio)” value was not above -4.2.
With C14A U15C A19C A20C U45C G86U, the “polymerase ribozyme fitness (log ratio)” value is -4.11.
In the case of G58C C87G A98G it was not above -4.2; in that of U9C C35G A39U C103G, not above -4.2; in that of G84U A89U U104G U127A, not above -4.2.
In the case of U53A C54A G65U G86U A91U it was not above -4.2; in that of A30U G70A G143C, not above -4.2; in that of A23U, -3.23.
For C85U U148C, the “polymerase ribozyme fitness (log ratio)” value is -2.19.
The value for A16G C27A C35G C43A U56G G58C C93U G117C A119C A121U G136A was not above -4.2; that for C10A A23U C35G C95G G128A was not above -4.2; that for C54A G94U C123G C125A U134C was -3.75.
Turning to C54U U55A C95G C96A, the “polymerase ribozyme fitness (log ratio)” value is -3.07.
In the case of A20G A29U C51G C87G it was not above -4.2; in that of U6G A29U A73G U77C C95U A107U, not above -4.2.
In the case of A52C U53A it was -3.29; in that of C14G U53A C54A U61G G62U U146C, not above -4.2; in that of A26C, -1.49.
As to G94C G117U, the “polymerase ribozyme fitness (log ratio)” value was found to be 0.0157.
In the case of G48C U82G G128C U135A it was -3.96.
In the case of G86U C108U it was -4.14.
In the case of U6G U9C A12C U45A C76G A91C C96G it was not above -4.2.
Take A26G C75U C96U: the “polymerase ribozyme fitness (log ratio)” value is not above -4.2.
The value for A20G C32G G86U C87A U109A was not above -4.2; that for C85G C114U was -3.49; that for C108A G143U U144G was not above -4.2.
In the case of U56A U61A C76G G84A C103G it was not above -4.2.
In the case of U31G U33A C75G A91G G140A G152A it was -3.96.
As to C14U G94C, the “polymerase ribozyme fitness (log ratio)” value was -2.9.
The value for C69U C85A was -3.16; that for A30U C54U C85U was -3.87.
On to U33G A60G, for which the “polymerase ribozyme fitness (log ratio)” value is -2.79.
With A26C C93G U139G G140U, the “polymerase ribozyme fitness (log ratio)” value was -4.11.
The value for A98G U101C G141U was 0.851; that for C57A C95U C149U was -0.536.
In the case of C51A C118G it was -3.24.
As for C75G G94A, the “polymerase ribozyme fitness (log ratio)” value is -4.08.
As for G59U C93A G152U, the “polymerase ribozyme fitness (log ratio)” value is not above -4.2.
Regarding A24G U33G C87U U101G G140C, the “polymerase ribozyme fitness (log ratio)” value was not above -4.2.
In the case of U55G G83A it was -0.31.
The value for C32G U61A G92U C131U was not above -4.2.

These data come from the RNAGym collection of RNA variant scans (doi:10.1073/pnas.2313332121).
